# Source: US20260098093A1 (HUMMINGBIRD BIOSCIENCE PTE, published 2026)
# T1: B7H3 (human, UniProt Q5ZPR3 29-461, limits assumed)
# T1 construct: also called CD276
# T1 sequence (looked up): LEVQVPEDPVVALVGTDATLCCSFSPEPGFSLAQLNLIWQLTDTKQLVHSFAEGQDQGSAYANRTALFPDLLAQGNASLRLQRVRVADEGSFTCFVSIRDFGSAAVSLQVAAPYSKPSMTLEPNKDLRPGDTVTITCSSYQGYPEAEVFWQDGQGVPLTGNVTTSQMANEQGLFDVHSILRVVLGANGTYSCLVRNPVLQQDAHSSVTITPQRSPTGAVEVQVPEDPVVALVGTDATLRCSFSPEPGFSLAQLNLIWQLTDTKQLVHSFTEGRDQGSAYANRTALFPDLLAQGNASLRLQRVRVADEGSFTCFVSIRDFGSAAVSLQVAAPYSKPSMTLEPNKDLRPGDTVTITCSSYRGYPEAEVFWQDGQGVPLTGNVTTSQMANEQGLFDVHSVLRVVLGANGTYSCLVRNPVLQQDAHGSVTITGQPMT
# T2: B7H4 (human, UniProt Q7Z7D3 29-258, limits assumed)
# T2 construct: also called VTCN1
# T2 sequence (looked up): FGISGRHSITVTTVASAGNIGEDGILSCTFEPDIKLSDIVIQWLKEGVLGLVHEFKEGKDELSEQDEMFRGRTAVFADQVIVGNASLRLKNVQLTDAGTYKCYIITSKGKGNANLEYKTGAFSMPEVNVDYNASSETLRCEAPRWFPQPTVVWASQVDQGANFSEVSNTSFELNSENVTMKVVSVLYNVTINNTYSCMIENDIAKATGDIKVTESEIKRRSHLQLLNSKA
# T3: B7H6 (human, UniProt Q68D85 25-262, limits assumed)
# T3 construct: also called NCR3LG1
# T3 sequence (looked up): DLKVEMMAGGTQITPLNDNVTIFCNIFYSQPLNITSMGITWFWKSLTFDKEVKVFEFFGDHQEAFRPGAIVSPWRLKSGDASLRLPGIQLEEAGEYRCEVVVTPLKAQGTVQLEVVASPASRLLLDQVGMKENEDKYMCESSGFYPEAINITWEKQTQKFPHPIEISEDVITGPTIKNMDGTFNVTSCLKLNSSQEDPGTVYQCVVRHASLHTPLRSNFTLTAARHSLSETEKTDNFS
# T4: B7H7 (human, UniProt Q9UM44 23-344, limits assumed)
# T4 construct: also called HHLA2
# T4 sequence (looked up): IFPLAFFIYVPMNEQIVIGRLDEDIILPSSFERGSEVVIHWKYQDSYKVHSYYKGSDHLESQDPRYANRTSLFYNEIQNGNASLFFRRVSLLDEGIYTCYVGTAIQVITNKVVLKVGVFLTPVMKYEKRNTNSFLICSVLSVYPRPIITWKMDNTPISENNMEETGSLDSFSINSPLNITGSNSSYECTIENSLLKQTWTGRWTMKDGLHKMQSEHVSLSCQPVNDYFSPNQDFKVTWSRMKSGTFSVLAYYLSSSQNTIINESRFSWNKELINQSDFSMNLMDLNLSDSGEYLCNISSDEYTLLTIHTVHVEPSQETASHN
# T5: CTLA-4 (human, UniProt P16410 36-162, limits assumed)
# T5 sequence (looked up): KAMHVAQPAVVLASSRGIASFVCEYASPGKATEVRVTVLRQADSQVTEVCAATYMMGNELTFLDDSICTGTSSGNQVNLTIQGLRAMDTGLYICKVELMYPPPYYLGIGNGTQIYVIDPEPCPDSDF
# T6: HIS-tagged human VISTA (human, UniProt Q9H7M9 33-194)
# T6 construct: Residues 33-194 are stated only for the protein used in HDXMS (Sino Biological #13482-H08H); also called human VISTA-HIS; not shown: HIS tag
# T6 sequence: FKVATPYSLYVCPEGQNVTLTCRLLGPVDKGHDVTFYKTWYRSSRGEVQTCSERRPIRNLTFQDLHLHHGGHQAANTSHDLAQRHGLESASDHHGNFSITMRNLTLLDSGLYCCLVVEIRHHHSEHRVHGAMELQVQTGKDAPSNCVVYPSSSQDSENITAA
# T7: recombinant human VISTA-Fc protein (R&D #7126-B7) (human, UniProt Q9H7M9 33-194)
# T7 construct: Bought protein; also called Fc-tagged human VISTA; not shown: Fc part of a bought fusion protein
# T7 sequence: T6 sequence
# B1: 4M2-C12-mIgG2a (antibody, V domains shown)
# VH: EVKLVESGPGLVKPSQSLSLTCTVTGYSITSDYAWNWIRQFPGNKLEWMGYITYSGNISYNPSLRSRISITRDTSKNQFFLQLNSVTPEDTATYSCARSLYYPWYFDVWGAGTTVTVSS
# VL: DIVITQTPAILSTSPGEKVTMTCRASSSVGYIHWYQQKPGSSPKPWIYATSNLASGVPARFSGSGSGTSNSLTITRVEAEDAATYYCQQWSSYPPITFGGGTKLEVKR
# notes: also called V4P mIgG2a
# B2: IGN175A (antibody, human IgG1, kappa, V domains shown)
# VH: QVQLQQSGAELMKPGASVKISCKATGYTFSTHWIEWVKQRPGHGLEWIGEILPGSGSTSYNEKFKGKATFTADTSSNTAYMQLSSLTSEDSAVYYCARWLLYYYAMDYWGQGTSVTVSS
# VL: DVLMTQTPLSLPVSLGDQASISCRSSQSIVHSNGNTYLEWYLQKPGQSPKLLIYKLSNRFSGVPDRFSGSGSGTDFTLKISRVEAEDLGVYYCFQGSHFPYTFGGGTKLEIKR
# B3: V4-C26 hIgG4 (antibody)
# heavy: not shown
# light: EIVLTQSPATLSLSPGERATLSCRASSSVGYIHWYQQKPGQAPRPIIYTTSNRATGIPARFSGSGSGTDNTLTISSLEPEDSAVYYCQQWSSYPPITFGGGTKLEVKRTVAAPSVFIFPPSDEQLKSGTASVVCLLNNFYPREAKVQWKVDNALQSGNSQESVTEQDSKDSTYSLSSTLTLSKADYEKHKVYACEVTHQGLSSPVTKSFNRGEC
# notes: Human IgG4 (S228P) / kappa; APC-conjugated in the flow cytometry assays; also called HMBD-002; V4-C26 hIgG4(S228P)
# B4: recombinant human VSIG3-Fc (Fc fusion, UniProt Q5DX21 23-241, looked up)
# chain: LEVSESPGSIQVARGQPAVLPCTFTTSAALINLNVIWMVTPLSNANQPEQVILYQGGQMFDGAPRFHGRVGFTGTMPATNVSIFINNTQLSDTGTYQCLVNNLPDIGGRNIGVTGLTVLVPPSAPHCQIQGSQDIGSDVILLCSSEEGIPRPTYLWEKLDNTLKLPPTATQDQVQGTVTIRNISALSSGLYQCVASNAIGTSTCLLDLQVISPQPRNIG
# modifications: biotinylated in the inhibition ELISA (sites not given)
# notes: Bought protein; also called VSIG3-Fc (R&D #9229-VS); not shown: Fc part of a bought fusion protein
# What was measured:
# B7H1/PDL-1 = B7H1/PDL-1 (human, UniProt Q9NZQ7 19-239, limits assumed); assay: ELISA: plate coated with the named human antigen, 4M2-C12-mIgG2a titrated, absorbance 450 nm
# B7H3 = target: T1, B7H3; assay: as above
# B7H4 = target: T2, B7H4; assay: as above
# B7H6 = target: T3, B7H6; assay: as above
# B7H7 = target: T4, B7H7; assay: as above
# PD-1 = PD-1 (human, UniProt Q15116 25-167, limits assumed); assay: as above
# CTLA-4 = target: T5, CTLA-4; assay: as above
# HIS-tagged human VISTA [1] = target: T6, HIS-tagged human VISTA; assay: ELISA: plate coated with the named human antigen, 4M2-C12-mIgG2a titrated, absorbance 450 nm; tag of the coated VISTA not stated
# HIS-tagged human VISTA [2] = target: T6, HIS-tagged human VISTA; assay: BLI (Octet) epitope binning: human VISTA-HIS on anti-Penta-HIS sensor, antibody at 400 nM (concentration from paragraph 696)
# [3] = target: T7, recombinant human VISTA-Fc protein (R&D …); assay: competition ELISA: plate-bound human VISTA-Fc, competitor LRIG1.HIS at 1 µg/ml
# Method: (§1) For inhibition assay, 384-well plates were coated with 5 μg/ml of human VISTA-Fc recombinant protein (R&D #7126-B7) diluted in PBS for 24 hrs at 4° C. […] Post incubation, plates were washed three times with TBST and incubated with anti-HIS HRP (Abcam #ab1187) antibody for 1 hr at room temperature followed by three further washes. Colorimetric reactions were developed using standard protocol as described for ELISA above.
# [4] = target: T7, recombinant human VISTA-Fc protein (R&D …); assay: competition ELISA: plate-bound human VISTA-Fc, competitor biotinylated VSIG3-Fc at 24 nM
# Method: as §1, with “For the” for “For”, “2” for “5”, “streptavidin” for “anti-HIS”, “(R&D #DY998)” for “(Abcam #ab1187)”
# [5] = target: T7, recombinant human VISTA-Fc protein (R&D …); assay: ELISA, VSIG3-Fc on plate-bound human VISTA-Fc
binder,measurement,setting,value
B1,binding result,B7H1/PDL-1,no binding (tested: about 2e-8 M)
same,binding result,B7H3,no binding (tested: about 2e-8 M)
same,binding result,B7H4,no binding (tested: about 2e-8 M)
same,binding result,B7H6,no binding (tested: about 2e-8 M)
same,binding result,B7H7,no binding (tested: about 2e-8 M)
same,binding result,PD-1,no binding (tested: about 2e-8 M)
same,binding result,CTLA-4,no binding (tested: about 2e-8 M)
same,EC50 (read off the curve),HIS-tagged human VISTA [1],~0.2 nM
B2,binding result,HIS-tagged human VISTA [2],binds
B3,IC50,[3],3.4 nM
same,IC50,[4],0.673 nM
B4,EC50,[5],24 nM
